Experimental findings from PMC6754429, “Structure of full-length wild-type human phenylalanine hydroxylase by small angle X-ray scattering reveals substrate-induced conformational stability” (Scientific Reports, 2019) are described below.

The data set deals with the molecule itself. As to the kind of experiment: SEC-SAXS; Shodex KW-404 column coupled to SAXS (B21, Diamond); 12 mg/mL hPAH injected; 20 mM Hepes pH 7.0, 200 mM NaCl; 20 °C; no L-Phe (hPAH^free); molecular mass from the Porod volume. Background: SEC sorts molecules by how far they enter the pores of the column.

B1: Recombinant full-length wild-type human phenylalanine hydroxylase (His6-hPAH) (enzyme, UniProt P00439 1-452, looked up)
chain: MSTAVLENPGLGRKLSDFGQETSYIEDNCNQNGAISLIFSLKEEVGALAKVLRLFEENDVNLTHIESRPSRLKKDEYEFFTHLDKRSLPALTNIIKILRHDIGATVHELSRDKKKDTVPWFPRTIQELDRFANQILSYGAELDADHPGFKDPVYRARRKQFADIAYNYRHGQPIPRVEYMEEEKKTWGTVFKTLKSLYKTHACYEYNHIFPLLEKYCGFHEDNIPQLEDVSQFLQTCTGFRLRPVAGLLSSRDFLGGLAFRVFHCTQYIRHGSKPMYTPEPDICHELLGHVPLFSDRSFAQFSQEIGLASLGAPDEYIEKLATIYWFTVEFGLCKQGDSIKAYGAGLLSSFGELQYCLSEKPKLLPLELEKTAIQNYTVTEFQPLYYVAESFNDAKEKVRNFAATIPRPFSVRYDPYTQRIEVLDNTQQLKILADSINSEIGILCSALQKIK
notes: human phenylalanine hydroxylase, full-length wild type; The same protein was measured without L-Phe (hPAH^free) and with 1 mM L-Phe (hPAH^Phe); also called hPAH^free; hPAH^Phe; source: E. coli Top10 (pTrcHis-hPAH plasmid), purified (Ni-NTA; PD-10 into SEC buffer, then the beamline SEC column); not shown: His6 (with a 26-amino acid linker), N-terminal, kept
As to B1, the stoichiometry N (commonly a count of units in the complex or per binding partner) worked out at 4.
